According to the RNAGym collection of RNA variant scans (doi:10.7554/elife.90254):

B1: LINE1-full (parent)
chain: UACGUAGGUGGUUUUCCCCUGAUAGUGCUAAGGGGGCCUGGAAGUUUGGACUGGGCAGAGCUCAACACAGCGUGGCAAAGUGGCUGUGGCUAGACUGCCUCUCUGGAUUCCUCGUCACUCAGCAGGGCAUCUCUGAGAGAAAUGCC

Variants of: B1
Assay: self-cleavage, relative activity (ratio to wild type); higher = more cleavage; in vitro, sequencing; the parent is a self-cleaving ribozyme

Going from UACGUGGGUGGUUUUCCCCUGAUAGUGCUAAGGGGGCCUGGAAGUUUGGACUGGGCAGAGCUCAACACAGCGUGGCAAAGUGGCUGUGGCUAGACUGCCUCUCUGGACUCCUCGUCACUCAGCAGGGCAUCUCUGAGAGAAAUGCC to UACGUGGGUGGUUUUCCCCUGAUAGUGCUAAGGGGGCCUGGAAGUUUGGACUGGGCAGAGCUCAACACAGCGUGGCAAAGUGGCUGUGGCUAGACUGCCUCUCUGGAUUCCUCGUCACUCAGCAGGGCACCUCUGAGAGAAAUGCC, the self-cleavage rises from 0.79 to 0.81.

Going from UACGUGGGUGGUUUUCCCCUGAUAGUGCUAAGGGGGCCUGGAAGUUUGGACUGGGCAGAGCGCAACACAGCGUGGCAAAGUGGCUGUGGCUAGACUGCCUCUCUGGAUUCCUCGUCACUCAGCAGGGCAUCUCUGAGAGAAAUGCC to UACGUGGGUGGUUUUCCCCUGAUAGUGCUAAGGGGGCCUGGAAGUUUGGACUGGGCAGAGCCCAACACAGCGUGGCAAAGUGGCUGUGGCUAGACUGCCUCUCUGGAUUCCUCGUCACUCAGCAGGGCAUCUCUGAGAGAAAUGCC, the self-cleavage rises from 0.11 to 0.18.

Compared with UACGUGGGUGGUUUUCCCCUGAUAGUGCUAAGGGGGCCUGGAAGUUUGGACUGGGCAGAGCUCAACACAGCGUGGCAAAGUGGCUGUGGCUAGACUGCCUCUCUGGAUUCCUCGUCACUCAGCAGGGCAUCACUGAGAGAAAUGCC, UACGUGGGUGGUUUUCCCCUGAUAGUGCUAAGGGGGCCUGGAAGUUUGGACUGGGCAGAGCUCAACACAGCGUGGCAAAGUGGCUGUGGCUAGACUGCCUCUCUGGAUUCCUCGUCACACAGCAGGGCAUCUCUGAGAGAAAUGCC is higher in self-cleavage: 1.04 for the first, 1.52 for the second.

Going from UACGUGGGUGGUUUUCCCCUGAUAGUGCUAAGGGGGCCUGGAAGUUUGGACUGGGCAGAGCUCAACACAGCGUGGCAAAGUGGCUGUGGCUAGACCGCCUCUCUGGAUUCCUCGUCACUCAGCAGGGCAUCUCUGAGAGAAAUGCC to UACGUGGGUGGUUUUCCCCUGAUAGUGCUAAGGGGGCCUGGAAGUUUGGACUGGGCAGAGCUCAACACAGCGUGGCAAAGUGGCUGUGGCUAGACAGCCUCUCUGGAUUCCUCGUCACUCAGCAGGGCAUCUCUGAGAGAAAUGCC, the self-cleavage falls from 0.41 to 0.2.

Going from UACGUGGGUGGUUUUCCCCUGAUAGUGCUAAGGGGGCCUGGAAGUUUGGACUGGGCAGAGCUCAACACAGCGUGGCAAAGUGGCUGUGGCUAGACUGCCUCCCUGGAUUCCUCGUCACUCAGCAGGGCAUCUCUGAGAGAAAUGCC to UACGUGGGUGGUUUUCCCCUGAUAGUGCUAAGGGGGCCUGGAAGUUUGGACUGGGCAGAGCUCAACACAGCGUGGCAAAGUGGCUGUGGCUAGACUGCCUCUCAGGAUUCCUCGUCACUCAGCAGGGCAUCUCUGAGAGAAAUGCC, the self-cleavage rises from 0.68 to 0.73.

Going from UACGUGGGUGGUUUUCCCCUGAUAGUGCUAAGGGGGCCUGGAAGUUUGGACUGGGCAGAGCUCAACACAGCGUGGCAAAGUGGCUGUGGCUAGACUGCCUCUCUGGAUUCCUCGACACUCAGCAGGGCAUCUCUGAGAGAAAUGCC to UACGUGGGUGGUUUUCCCCUGAUAGUGCUAAGGGGGCCUGGAAGUUUGGACUGGGCAGAGCUCAACACAGCGUGGCAAAGUGGCUGUGGCUAGACUGCCUCUCUGGAUUCCUCGGCACUCAGCAGGGCAUCUCUGAGAGAAAUGCC, the self-cleavage rises from 0.64 to 2.04.

First: UACGUGGGUGGUUUUCCCCUGAUAGUGCUAAGGGGGCCUGGAAGUUUGGACUGGGCAGAGCUCAACACAGCGUGGCAAAGAGGCUGUGGCUAGACUGCCUCUCUGGAUUCCUCGUCACUCAGCAGGGCAUCUCUGAGAGAAAUGCC
Second: UACGUGGGUGGUUUUCCCCUGAUAGUGCUAAGGGGGCCUGGAAGUUUGGACUGGGCAGAGCUCAACACAGCGUGGCAAAGUGGCUGUGGCUAGACUGCCUCUCUGGAUUCCACGUCACUCAGCAGGGCAUCUCUGAGAGAAAUGCC
The self-cleavage of the first is higher: 1.47 for the first, 0.95 for the second.

First: UACGUGGGUGGUUUUCCCCUGAUAGUGCUAAGGGGGCCUGGAAGUUUGGACUGGGCAGAGCUCAACACAGCGUGGCAAAGUGGCUGUGGCUAGACUGCCUCUCUGGAUUCCCCGUCACUCAGCAGGGCAUCUCUGAGAGAAAUGCC
Second: UACGUGGGUGGUUUUCCCCUGAUAGUGCUAAGGGGGCCUGGAAGUUUGGACUGGGCAGAGCUCAACACAGCGUGGCAAAGUGGCUGUGGCUAGACUGCCUCUCUGGAUCCCUCGUCACUCAGCAGGGCAUCUCUGAGAGAAAUGCC
The self-cleavage of the first is higher: 0.96 for the first, 0.71 for the second.

Compared with UACGUGGGUGGUUUUCCCCUGAUAGUGCUAAGGGGGCCUGGAAGUUUGGACAGGGCAGAGCUCAACACAGCGUGGCAAAGUGGCUGUGGCUAGACUGCCUCUCUGGAUUCCUCGUCACUCAGCAGGGCAUCUCUGAGAGAAAUGCC, UACGUGGGUGGUUUUCCCCUGAUAGUGCUAAGGGGGCCUGGAAGUUUGGACUGGGCAGAGCUCAACACAGCGUGGCAAAGUGGCUGCGGCUAGACUGCCUCUCUGGAUUCCUCGUCACUCAGCAGGGCAUCUCUGAGAGAAAUGCC is lower in self-cleavage: 0.43 for the first, 0.15 for the second.

First: UACGUGGGUGGUUUUCCCCUGAUAGUGCUAAGGGGGCCUGGAAGUUUGGACUGGGCAGAGCUCAACACAGCGCGGCAAAGUGGCUGUGGCUAGACUGCCUCUCUGGAUUCCUCGUCACUCAGCAGGGCAUCUCUGAGAGAAAUGCC
Second: UACGUGGGUGGUUUUCCCCUGAUAGUGCUAAGGGGGCCUGGAAGUUUGGACUGGGCAGAGCUCAACACAGCGUGGCAAAGUGGCUGUGGCUAGACUGCCGCUCUGGAUUCCUCGUCACUCAGCAGGGCAUCUCUGAGAGAAAUGCC
The self-cleavage of the first is higher: 1.34 for the first, 0.95 for the second.
